The results in this text go back to the RNAGym collection of RNA variant scans (doi:10.1038/ncomms11558).

The chains are these.
B1: mRNA-splicing (parent)
chain: GAUCCAGAUCUAACUUGGGGUGGCUUUGUCUUCUUCUUUUGCCAAUUCCACUAAUUGUUUGGG

In this data set the parent is B1. As to the kind of experiment: exon inclusion enrichment score (log2 ratio to wild type); higher = more inclusion; FAS exon 6 minigene, HEK293.
Regarding GAUCCAGAUCUAACUUGGGGUGGCUUUGUCUUCUUCUUUUGCCAAUUCCACGAAUUGUUUGGG, the “exon inclusion enrichment score” value is 0.635.
As for GAUCCAGAUCUAACUUGGGGUGGCUUUGUCUUCUUCUUUUGCCAAUUCCACCAAUUGUUUGGG, the figure is 0.564; as for GAUCCAGAUCUAACUUGGGGUGGCUUUGUCUUCUUCUUUUGCCAAUUCCACAAAUUGUUUGGG, 0.166; as for GAUCCAGAUCUAACUUGGGGUGGCUUUGCCUUCUUCUUUUGCCAAUUCCACUAAUUGUUUGGG, 0.119.
As for GAUCCAGAUCUAACUUGGGGUGGCUUUGGCUUCUUCUUUUGCCAAUUCCACUAAUUGUUUGGG, the figure is -3.82; as for GAUCCAGAUCUAACUUGGGGUGGCUUUGUCCUCUUCUUUUGCCAAUUCCACUAAUUGUUUGGG, -0.076.
As for GAUCCAGAUCUAACUUGGGGUGGCUUUGUCGUCUUCUUUUGCCAAUUCCACUAAUUGUUUGGG, the figure is -1.2; as for GAUCCAGAUCUAACUUGGGGUGGCUUUGUCAUCUUCUUUUGCCAAUUCCACUAAUUGUUUGGG, 0.242.
GAUCCAGAUCUAACUUGGGGUGGCUUUGUCUUCUUCUUUUGCCAAUUCCACUGAUUGUUUGGG: the “exon inclusion enrichment score” value was 0.229.
Turning to GAUCCAGAUCUAACUUGGGGUGGCUUUGUCUUCUUCUUUUGCCAAUUCCACUUAUUGUUUGGG, the “exon inclusion enrichment score” value was -0.046.
Next, GAUCCAGAUCUAACUUGGGGUGGCUUUGUCUUCUUCUUUUGCCAAUUCCACUCAUUGUUUGGG: -0.152; GAUCCAGAUCUAACUUGGGGUGGCUUUGUCUUCUUCUUUUGCCAAUUCCAUUAAUUGUUUGGG: -1.53; GAUCCAGAUCUAACUUGGGGUGGCUUUGUCUUCUUCUUUUGCCAAUUCCAGUAAUUGUUUGGG: 0.038.
Turning to GAUCCAGAUCUAACUUGGGGUGGCUUUGUCUUCUUCUUUUGCCAAUUCCAAUAAUUGUUUGGG, the “exon inclusion enrichment score” value was -1.68.
Next, GAUCCAGAUCUAACUUGGGGUGGCUUUGUCUUGUUCUUUUGCCAAUUCCACUAAUUGUUUGGG: -2.4; GAUCCAGAUCUAACUUGGGGUGGCUUUGUCUUAUUCUUUUGCCAAUUCCACUAAUUGUUUGGG: -3.75; GAUCCAGAUCUAACUUGGGGUGGCUUUGUCUUUUUCUUUUGCCAAUUCCACUAAUUGUUUGGG: -4.54.
As for GAUCCAGAUCUAACUUGGGGUGGCUUUGUCUUCUUCCUUUGCCAAUUCCACUAAUUGUUUGGG, the figure is 0.225; as for GAUCCAGAUCUAACUUGGGGUGGCUUUGUCUUCUUCAUUUGCCAAUUCCACUAAUUGUUUGGG, 0.26; as for GAUCCAGAUCUAACUUGGGGUGGCUUUGUCUUCUUCGUUUGCCAAUUCCACUAAUUGUUUGGG, 0.33.
As for GAUCCAGAUCUAACUUGGGGUGGCUUUGUCUUCUUCUAUUGCCAAUUCCACUAAUUGUUUGGG, the figure is -0.025; as for GAUCCAGAUCUAACUUGGGGUGGCUUUGUCUUCUUCUCUUGCCAAUUCCACUAAUUGUUUGGG, 0.106.
On to GAUCCAGAUCUAACUUGGGGUGGCUUUGUCUUCUUCUGUUGCCAAUUCCACUAAUUGUUUGGG, for which the “exon inclusion enrichment score” value was 0.274.
As for GAUCCAGAUCUAACUUGGGGUGGCUUUGUCUUCUUCUUUUGCCAAUCCCACUAAUUGUUUGGG, the figure is -2.08.
Consider GAUCCAGAUCUAACUUGGGGUGGCUUUGUCUUCUUCUUUUGCCAAUGCCACUAAUUGUUUGGG, for which the “exon inclusion enrichment score” value is -1.62.
For GAUCCAGAUCUAACUUGGGGUGGCUUUGUCUUCUUCUUUUGCCAAUACCACUAAUUGUUUGGG, the “exon inclusion enrichment score” value was -0.214.
GAUCCAGAUCUAACUUGGGGUGGCUUUGUCUUCUUCUUUUGCCAAAUCCACUAAUUGUUUGGG: the “exon inclusion enrichment score” value was determined as 0.041.
For the variant GAUCCAGAUCUAACUUGGGGUGGCUUUGUCUUCUUCUUUUGCCAACUCCACUAAUUGUUUGGG, the “exon inclusion enrichment score” value was determined as 0.336.
Next, GAUCCAGAUCUAACUUGGGGUGGCUUUGUCUUCUUCUUUUGCCAAGUCCACUAAUUGUUUGGG: 0.344; GAUCCAGAUCUAACUUGGGGUGGCUUUGUCUUCUUUUUUUGCCAAUUCCACUAAUUGUUUGGG: -2.31; GAUCCAGAUCUAACUUGGGGUGGCUUUGUCUUCUUGUUUUGCCAAUUCCACUAAUUGUUUGGG: -0.112.
As for GAUCCAGAUCUAACUUGGGGUGGCUUUGUCUUCUUAUUUUGCCAAUUCCACUAAUUGUUUGGG, the figure is -0.688.
As to GAUCCAGAUCUAACUUGGGGUGGCUUUGUCUUCUUCUUUUGCCAAUUCCCCUAAUUGUUUGGG, the “exon inclusion enrichment score” value was -3.91.
Next, GAUCCAGAUCUAACUUGGGGUGGCUUUGUCUUCUUCUUUUGCCAAUUCCGCUAAUUGUUUGGG: 0.131; GAUCCAGAUCUAACUUGGGGUGGCUUUGUCUUCUUCUUUUGCCAAUUCCUCUAAUUGUUUGGG: -1.12.
In the case of GAUCCAGAUCUAACUUGGGGUGGCUUUGUCUACUUCUUUUGCCAAUUCCACUAAUUGUUUGGG, the “exon inclusion enrichment score” value was -0.129.
As for GAUCCAGAUCUAACUUGGGGUGGCUUUGUCUGCUUCUUUUGCCAAUUCCACUAAUUGUUUGGG, the figure is 0.176; as for GAUCCAGAUCUAACUUGGGGUGGCUUUGUCUCCUUCUUUUGCCAAUUCCACUAAUUGUUUGGG, -0.05; as for GAUCCAGAUCUAACUUGGGGUGGCUUUGUCUUCUUCUUUAGCCAAUUCCACUAAUUGUUUGGG, -2.39.
Next, GAUCCAGAUCUAACUUGGGGUGGCUUUGUCUUCUUCUUUGGCCAAUUCCACUAAUUGUUUGGG: 0.275; GAUCCAGAUCUAACUUGGGGUGGCUUUGUCUUCUUCUUUCGCCAAUUCCACUAAUUGUUUGGG: 0.287; GAUCCAGAUCUAACUUGGGGUGGCUUUGUCUUCUUCUUUUUCCAAUUCCACUAAUUGUUUGGG: -1.24.
